Data on two molecules can be found in patent US20230338553A1 (published 2023).

This assay concerns the target Prostate Stem Cell Antigen (PSCA) (human, UniProt O43653 12-83). Nature of the assay: flow cytometry (293T-PSCA cells). Background: A flow cytometer gives signals particle by particle.

Sequence of Prostate Stem Cell Antigen (PSCA) (O43653 12-83): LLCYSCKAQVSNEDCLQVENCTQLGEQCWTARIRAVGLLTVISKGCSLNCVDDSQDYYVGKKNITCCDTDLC

B1: scFv(h-AM1)-BAP (scFv)
scFv: DAAQPARRARRTKLGTELGSEVQLLESGGGLVQPGGSLRLSCVASGFTFSSYTMSWVRQAPGKGLEWVSYIHNGGGHTYYADSVKGRFTISRDNSKNTLYLQMNSLRAEDTAVYYCTRRMYYGNSHWYFDVWGAGTRVTITSAKTTPPSVYGGGGSGGGGSGGGGSTNSDIQMTQSPSSLSASVGDRVTITCRTSQSISNYLNWYQQKPGKAPKLLIYYTLKLNSGVPSRFSGSGSGTDFTLTISSLQPEDFATYYCQQSKTLPWTFGGGTKLEIKRADAAPTVSGPEQKLISEEDLNSAVDMSGLNDIFEAQKIEWHEGAPSSHHHHHH
modifications: mono-biotinylated at the C-terminal BAP (Bio-Tag)
Usually Kd stands for the equilibrium constant for the complex coming apart. Read a low Kd as tighter binding. B1: the Kd was found to be 0.744 µM.

B2: scFv(AM1)-P-BAP (scFv)
scFv: DAAQPARRARRTKLGTELGSQVKLQESGGGLVQPGGSLKLSCVASGFTFSSYTMSWVRRTPEKRLEWVAYIHNGGGHTYYPDTIKGRFTISRDNAKNTLFLEMSSLKSEDTAMYYCTRRMYYGNSHWYFDVWGAGTSVTVSSAKTTPPSVYGGGGSGGGGSGGGGSTNSDIVMTQSPSSLSASLGDRVTINCRTSQDISNYLNWYQLTPDGTVKLLIYYTLKLNSGVPSRFSGSGSGTDYSLTINNLEKEDFATYFCQQSKTLPWTFGGGTKLEIKRADAAPTVSGPKLSSKLKVTVNGTAYDVDVDVDKSHENPMGTILFGGGTGGAPAPAAGGAGAGKAGEGEIPAPLAGTVSKILVKEGDTVKAGQTVLVLEAMKMETEINAPTDGKVEKVLVKERDAVQGGQGLIKIGDLELIEGSSGPEQKLISEEDLNSAVDHHHHHH
modifications: mono-biotinylated at the C-terminal P-BAP (PSTCD biotin acceptor domain) when produced in 293T-huBirA cells
In turn, B2 yielded a Kd of 16.6 µM.
